How the values were obtained:
Flag-human APRIL = target: T1, Flag-human APRIL (human, UniProt O75888 110-250, limits assumed); assay: Western blot (FIG. 7A)
T1 construct: Control antigen; not shown: Flag tag
T1 sequence (looked up): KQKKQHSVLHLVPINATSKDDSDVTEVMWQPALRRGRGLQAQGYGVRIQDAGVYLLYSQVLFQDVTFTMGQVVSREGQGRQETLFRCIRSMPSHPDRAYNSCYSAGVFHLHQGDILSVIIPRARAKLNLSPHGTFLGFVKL
Source text: FIG. 7. Use of anti-EDAR mAb in Western blotting.
(§1) The weaker signal obtained with mouse EDAR might be explained by the lower amount of mouse EDAR-Fc loaded on the gel. Binding specificity is established by showing that none of the mAbEDARs does bind to Fas-Fc and Flag-human APRIL (while Flag-human APRIL is recognized by an anti-APRIL mAb). […] The band recognized by mAbEDAR5 in the BSA lane is probably due to a cross-contamination of EDAR-Fc in the neighboring lane.

human Fas-Fc [1] = target: T2, human Fas-Fc (human, UniProt P25445 26-170, limits assumed); assay: ELISA on coated human Fas-Fc (FIG. 6C)
T2 construct: Negative control protein; also called hFas-Fc; not shown: Fc portion
T2 sequence (looked up): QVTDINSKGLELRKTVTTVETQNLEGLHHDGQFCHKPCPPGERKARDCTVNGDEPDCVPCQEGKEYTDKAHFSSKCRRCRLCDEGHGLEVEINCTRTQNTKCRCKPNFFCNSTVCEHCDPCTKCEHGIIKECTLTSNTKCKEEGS
Description: FIG. 6. Specific binding of the anti-EDAR mAb to both mouse and human EDAR. Graded concentrations of mAbEDAR1-4 or of a control mAb (Aprily 5) were added to wells of a 96-well ELISA plate coated with 100 μl of 1 μg/ml of human EDAR-Fc, mouse EDAR-Fc, human Fas-Fc or Flag-human APRIL. […] The absorbance was measured at 490 nm.
In order to obtain antibodies recognizing both human and mouse EDAR, a feature which would considerably facilitate pre-clinical development of drug candidates, EDAR-deficient mice were immunized with human EDAR. It was then assessed whether monoclonal antibodies generated from these mice indeed recognized EDAR from these two animal species. The wells of microtiter plates were coated with soluble human and mouse EDAR-Fc fusion protein and a negative control protein (human Fas-Fc), blocked and probed with serial dilutions of anti-EDAR monoclonal antibody (mAb) mAbEDAR1, 2, 3 and 4 and a negative control mAb (Aprily 5) (FIG. 6), or with a single dose of mAbEDAR1 to 15 (FIG. 9).

[2] = target: T3, human EDAR domains I and II fused to Fc of human IgG1 (human, UniProt Q9UNE0 27-114); assay: capture ELISA on EDAR-Fc truncation proteins
T3 construct: Tested as supernatant of transfected 293T cells; also called CRD1 and CRD2 EDAR-Fc truncation protein; fragment made up of domains I and II; not shown: Fc region of human IgG1
T3 sequence: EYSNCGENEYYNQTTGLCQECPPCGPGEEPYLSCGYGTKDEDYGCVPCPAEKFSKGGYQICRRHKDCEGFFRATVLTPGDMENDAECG
Source text: (§2) Epitope mapping of anti-EDAR monoclonal antibodies on recombinant human EDAR by ELISA. (A) Schematic linear representation of human EDAR showing the position of cystein residues (thin horizontal lines), of the putative N-linked glycosylation site (thick horizontal line, N), of the six structural modules (rectangles with rounded corners) composing the three cystein-rich domains (CRD1, CRD2, CRD3), of the transmembrane domain (rectangle, TMD), of the signal peptide (Leader), of the stalk and of the intracellular domain (ID). Amino acid numbers at the junctions of interest are indicated. The arrow indicates the predicted cleavage site of the signal peptide. The scheme is drawn to scale, except for the intracellular domain. (B) Wells of ELISA plates were coated with goat anti-human IgG antibody, blocked, and further incubated with human EDAR-Fc, mouse EDAR-Fc or the indicated human EDAR-Fc truncation proteins in cell supernatants of transfected cells. One well was also left without cell supernatant (Ctrl). The efficient capture of the various EDAR-Fc proteins was controlled using horseradish peroxydase-coupled donkey anti-human IgG antibody. Binding of mAbEDARs were monitored with horseradish peroxydase-coupled anti-mouse IgG antibody.
(§3) EDAR is a transmembrane protein whose extracellular part is composed of three membrane distal cystein-rich domains (CRDs) and of a proximal membrane stalk domain (FIG. 9A). Constructs coding for the entire EDAR protein, domains I and II, domains II and III, domain III and the stalk domain, domains I, II and III alone and the stalk domain alone were assembled with the Fc region of human IgG1, inserted into a mammalian expression vector and transiently transfected in 293T cells. […] The other fragments were not recognized, in particular the fragments made up of either domain I or II alone. mAbEDAR5, 6, 12 and 13 specifically recognized domain I, alone or together with domain II. mAbEDAR9, 14 and 15 only recognized Fc constructs containing the entire EDAR extracellular domain.

[3] = target: T4, human EDAR domain I alone fused to Fc of human IgG1 (human, UniProt Q9UNE0 27-72); assay: capture ELISA on EDAR-Fc truncation proteins (FIG. 9)
T4 construct: also called CRD1 EDAR-Fc truncation protein; not shown: Fc region of human IgG1
T4 chain: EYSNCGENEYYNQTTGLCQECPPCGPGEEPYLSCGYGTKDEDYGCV
Source text: as §2, §3

[4] = target: T5, human EDAR domain II alone fused to Fc of human IgG1 (human, UniProt Q9R187 73-114 (mouse entry), limits assumed); assay: as above
T5 construct: also called CRD2 EDAR-Fc truncation protein; not shown: Fc region of human IgG1
T5 chain: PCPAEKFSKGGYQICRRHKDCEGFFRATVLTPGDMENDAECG
Source text: as §2, §3

[5] = target: T6, human EDAR stalk domain alone fused to Fc of human IgG1 (human, limits assumed); assay: as above
T6 construct: also called stalk EDAR-Fc truncation protein; not shown: Fc region of human IgG1
T6 chain: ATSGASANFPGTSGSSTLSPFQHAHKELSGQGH
Source text: as §2, §3

human Fas-Fc [6] = target: T2, human Fas-Fc; assay: Western blot, 20 ng hFas-Fc (FIG. 7B)
Source text: as §1

[7] = target: T7, hEDAR-Fas on Fas-deficient Jurkat cells (human, UniProt P25445 169-335, limits assumed); assay: cell-based or functional assay
T7 sequence: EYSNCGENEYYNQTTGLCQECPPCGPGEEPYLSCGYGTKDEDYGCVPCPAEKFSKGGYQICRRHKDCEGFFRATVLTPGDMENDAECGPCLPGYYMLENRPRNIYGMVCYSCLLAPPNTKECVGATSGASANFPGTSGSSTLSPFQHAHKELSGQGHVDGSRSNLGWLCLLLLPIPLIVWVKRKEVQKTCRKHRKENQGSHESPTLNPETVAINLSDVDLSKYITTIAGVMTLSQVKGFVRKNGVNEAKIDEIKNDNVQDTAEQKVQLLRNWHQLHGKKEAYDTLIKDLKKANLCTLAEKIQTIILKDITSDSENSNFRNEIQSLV

[8] = target: T8, mEDAR-Fas on Fas-deficient Jurkat cells (mouse; human, UniProt P25445 169-335, limits assumed); assay: cell-based or functional assay
T8 sequence: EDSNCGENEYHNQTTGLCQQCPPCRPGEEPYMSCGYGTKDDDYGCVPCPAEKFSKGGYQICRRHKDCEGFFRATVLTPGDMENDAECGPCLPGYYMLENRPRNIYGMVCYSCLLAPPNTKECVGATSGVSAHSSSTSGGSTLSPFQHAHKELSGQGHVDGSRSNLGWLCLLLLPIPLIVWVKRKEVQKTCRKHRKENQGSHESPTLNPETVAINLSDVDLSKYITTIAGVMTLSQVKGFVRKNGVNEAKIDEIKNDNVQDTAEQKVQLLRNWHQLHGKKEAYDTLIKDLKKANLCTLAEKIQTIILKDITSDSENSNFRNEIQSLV

[9] = target: EDAR-Fas fusion protein on Fas-deficient Jurkat cells (human or mouse EDAR not told apart) (human, UniProt P25445 169-335); assay: cell-based or functional assay
mouse EDAR-Fc = target: T9, mouse EDAR-Fc (mouse); assay: ELISA on mouse EDAR-Fc (FIG. 9)
T9 construct: also called mouse EDAR (1-183)-Fc; soluble mouse EDAR-Fc fusion protein
Source text: as §2, with “FIG. 9. Epitope” for “Epitope”, “One well was also left without cell supernatant (Ctrl). The efficient capture of the various EDAR-Fc proteins was controlled using horseradish peroxydase-coupled donkey anti-human IgG antibody.” left out
In order to obtain antibodies recognizing both human and mouse EDAR, a feature which would considerably facilitate pre-clinical development of drug candidates, EDAR-deficient mice were immunized with human EDAR. It was then assessed whether monoclonal antibodies generated from these mice indeed recognized EDAR from these two animal species. […]

[10] = target: T4, human EDAR domain I alone fused to Fc …; assay: capture ELISA on EDAR-Fc truncation proteins
Source text: as §2, §3

human EDAR-Fc = target: T10, human EDAR-Fc (human); assay: Western blot, non-reducing, 20 ng human EDAR-Fc (FIG. 7B)
T10 construct: also called hEDAR-Fc; human EDAR (1-183)-Fc
Source text: as §1

B1: mAbEDAR1 (antibody, IgG1, V domains shown)
VH: EVPLEESGGGLVKPGGSRKLSCAASGFTFSDHGMHWVRQAPEKGLEWIAYISSGSSNVYYSDTVKGRFTISRDNAKNTLFLQMTSLRSEDTAMYYCARRELLRFYFDVWGAGTTVTVSS
VL: DIQMTQTTSSLSASLGDRVTISCRASQDIGNHLNWYQQKPDGTVKLLIYYTSRIHSGVPSRFSGSGSGTDYSLTISNLEQEDIATYFCQQGNTLPWTFGGGTKLEIKR
notes: also called anti-EDAR mAb mAbEDAR1
binding result (Flag-human APRIL): no binding | binding result (human Fas-Fc [1]): no binding | binding result [2]: binds | binding result [3]: no binding | binding result [4]: no binding | binding result [5]: no binding

B2: mAbEDAR3 (antibody, IgG1, V domains shown)
VH: EVPLEESGGGLVKPGGSRKLSCAASGFTFSDYGMHWVRQAPEKGLEWVAYISSGSSAIYYADTVKGRFTISRDNAKSTLFLQMTSLRSEDTAMYYCARREILRYYFDVWGAGTTVTVSS
VL: DIQMTQSTSSLSASLGDRVTISCRASQDISNNLNWYQQRPDGTVKLLIYYTSRSQSGVPSRFSGSGSGTDYSLTISNLEQEDVATYFCHQGKTLPYTFGGGTKLEIKR
notes: also called anti-EDAR mAb mAbEDAR3
binding result (Flag-human APRIL): no binding | binding result (human Fas-Fc [6]): no binding | binding result [2]: binds | binding result [3]: no binding | binding result [4]: no binding | binding result [5]: no binding

B3: Fc-EDA1 (Fc fusion, UniProt Q92838 245-391, looked up, not shown: a dimerising Fc or GST)
chain: ENQPAVVHLQGQGSAIQVKNDLSGGVLNDWSRITMNPKVFKLHPRSGELEVLVDGTYFIYSQVEVYYINFTDFASYEVVVDEKPFLQCTRSIETGKTNYNTCYTAGVCLLKARQKIAVKMVHADISINMSKHTTFFGAIRLGEAPAS
EC50 (concentration of agonist inducing half maximal decrease of cell viability), hEDAR-Fas Jurkat cells [7]: ~1 ng/mL | EC50 (concentration of agonist inducing half maximal decrease of cell viability), mEDAR-Fas Jurkat cells [8]: ~1 ng/mL | EC50 (concentration of agonist inducing half maximal decrease of cell viability), EDAR-Fas Jurkat cells [9]: 3 to 9 ng/mL

B4: mAbEDAR5 (antibody, IgG2b, V domains shown)
VH: QVQLKQSGPGLVQPSQSLSITCTVSGFSLSNYGVHWIRQSPGKGLEWLGVIWGGGSTDYNAAFISRLSISKDNSKSQVFFKMNSLQADDTAIYYCASYYGYYDWFAYWGQGTLVTVSA
VL: EIVLTQSPTTMAASPGEKITITCSASSIISSNYLHWYQQKPGFSPKPLIYRTSNLASGVPARFSGSGSGTSYSLTIGTMEAEDVATYYCQQGSSIPRTFGSGTKLEIKR
binding result (mouse EDAR-Fc): binds | binding result (human Fas-Fc [6]): no binding | binding result [2]: binds | binding result [10]: binds | binding result (human EDAR-Fc): binds

B5: mAbEDAR6 (antibody, IgG2a, V domains shown)
VH: EVQLQQSGPELVKPGASVKMSCKASGYSFTGYNMHWVKQSHGKSLEWIGYIDPYNGATSKNQKFKGKATLTVDKSSTTAYIQLNSLTSEDSAVYYCARYYYGDYHWYFDVWGAGTTVTVSS
VL: DVVMTQTPLSLPVSLGDQASISCRSSQSLVHSNGNTYLHWYLQQPGQSPKLLIYKVSNRFSGVPDRFSGSGSGTDFTLKISRVEAEDLGVYFCSQHTHVPPTFGAGTKLELKR
binding result (mouse EDAR-Fc): binds | binding result (human Fas-Fc [6]): no binding | binding result [2]: binds | binding result [10]: binds | binding result (human EDAR-Fc): binds

Source: patent US20130273046A1 (UNIVERSITE DE LAUSANNE, published 2013)
